# What was measured:
# [1] = test system: rivaroxaban (prothrombin time); assay: Reversal of rivaroxaban's effect on prothrombin time (PT) in vitro, rat plasma; type: biochemical
# Description: (§1) Citrated blood (0.11 M Na-citrate/blood, 1:9 v/v) was obtained from human donors by venipuncture or from anesthetized Wistar rats (Charles River) by aortic cannulation and centrifuged at 4000 g for 15 minutes for separation of platelet-poor plasma. […] Antidote was added to the Plasma-rivaroxaban mixture and incubated for another 10 minutes at room temperature. The PT assay was run using Recombiplastin (Instrumentation Laboratory) as tissue factor source on an AMAX 200 automated coagulometer (Trinity Biotech) according to manufacturer's instructions. The composition of the final assay volume is ⅓ plasma and ⅔ PT reagent. […] Data are given as means±sem from 5 experiments and represent final assay concentrations (Table 8 and FIGS. 7 and 8).
# [2] = test system: rivaroxaban (prothrombin time); assay: Reversal of rivaroxaban's effect on prothrombin time (PT) in vitro, human plasma; type: biochemical
# Description: as §1
# [3] = test system: rivaroxaban induced FXa inhibition; assay: Functional neutralization of rivaroxaban in a biochemical Factor Xa activity assay; details: Table 6, 0.05 nM FXa, 0.6 nM rivaroxaban
# Description: Serial dilutions of test compounds in assay buffer (50 mM HEPES pH 7.8, 250 mM NaCl, 6 mM CaCl2, 0.01% Brij35, 1 mM glutathione, 4 mM EDTA, 0.05% bovine serum albumin) were performed (typical concentrations ranging from 5 μM to 0.0007 μM).
# 20 μL of the diluted test compounds were placed in 384 well microtiter plates (Greiner, Frickenhausen, Germany), followed by the addition of 10 μL of a 1:400 dilution (250 μM) of the FXa substrate Pefafluor Xa (100 mM in DMSO, Loxo, Dossenheim, Germany) in assay buffer. […] Simultaneously, control reactions without rivaroxaban were started.
# During incubation at 32° C., reaction progress curves were monitored using a fluorescence microtiter plate reader (e.g Tecan Ultra Evolution, Tecan Group Ltd., Mannedorf, Switzerland; excitation 360 nm, emission 465 nm).
# The dilution of FXa was chosen that in the control reactions the reaction kinetics was linear, and less than 50% of the substrate was consumed (typical final FXa concentration in the assay: 0.05 nM). […] Results are depicted in FIG. 1.
# [4] = Affinity by surface plasmon resonance (Biacore), immobilized Fab, analyte rivaroxaban; type: binding; details: Table 6, immobilized Fabs, SPR (Biacore)
# Description: “Binding affinity” refers to the strength of the sum total of noncovalent interactions between a single binding site of a molecule and its binding partner. Unless indicated otherwise, as used herein, “binding affinity” refers to intrinsic binding affinity which reflects a 1:1 interaction between members of a binding pair (e.g. an antibody and an antigen). The dissociation constant “KD” is commonly used to describe the affinity between a molecule (such as an antibody) and its binding partner (such as an antigen) i.e. how tightly a ligand binds to a particular protein. Ligand-protein affinities are influenced by non-covalent intermolecular interactions between the two molecules Affinity can be measured by common methods known in the art, including those described herein. In one embodiment, the “KD” or “KD value” according to this invention is measured by using surface plasmon resonance assays using a Biacore T100 instrument (GE Healthcare Biacore, Inc.) according to Example 5. The dissociation equilibrium constant (KD) was calculated based on the ratio of association (kon) and dissociation rated (koff) constants, obtained by fitting sensograms with a first order 1:1 binding model using Biacore Evaluation Software. Other suitable devices are BIACORE(R)-2000, a BIACORE (R)-3000 (BIAcore, Inc., Piscataway, N.J.), or ProteOn XPR36 instrument (Bio-Rad Laboratories, Inc.).
# Binding affinities of Fab-fragments were determined by surface plasmon resonance analysis on a Biacore T100 instrument (GE Healthcare Biacore, Inc.). Fab fragments were diluted to a final concentration of 10 μg/ml in 10 mM sodium acetate, pH 4.5, and immobilized on a CM5 chip (GE Healthcare Biacore, Inc.) at levels of 3000-5000RU by amine-coupling chemistry for flow cells 2, 3 and 4, respectively. Flow cell 1 was used as a reference. […] Sensograms were generated after in-line reference cell correction followed by buffer sample subtraction. The dissociation equilibrium constant (KD) was calculated based on the ratio of association and dissociation rated constants, obtained by fitting sensograms with a first order 1:1 binding model using BiaEvaluation Software.
# [5] = ELISA-based activity assay of antibody variants with a competition step (300 nM rivaroxaban); type: binding; parameters: key: ++: Variants with an average ratio above wt plus 2×SD (standard deviation of the ratio) were considered as improved; −: variants with a ratio below wt minus 2×SD were considered as reduced in their binding affinity; +/−: All variants with a performance in between both thresholds; −−: Variants with average fluorescence counts below the negative control (non-expressing cells) plus 3×SD were considered as non-binding; details: Table 11: single and double amino acid substitutions within M18-G08, variant to wt ratio, 1-3 independent experiments
# Description: To determine the activity of the mutated antibody variants on compound from Example 1K an equilibrium or dissociation limited ELISA assay format was used. Briefly, MTP plates (Nunc Maxisorp black, 460518) were coated with 4 μg/ml streptavidin (Calbiochem, 189730) diluted in coating buffer (Candor Bioscience GmbH, 121500) and incubated over night at 4° C. After washing with PBST, plates were blocked with 100% Smart Block (Candor Bioscience GmbH, 113500) in PBST for 1 h at room temperature and the washing step was repeated. […] After washing 10 μM Amplex Red (Invitrogen, A12222) were added and incubated for 10 to 30 min at room temperature followed by measurement of the fluorescence signal.
# Provided in table 11 are several examples of single and/or double amino acid substitutions introduced into the heavy and/or the light chain of M18-G08 (wt). Performance of the variants was analyzed in quadruples in the ELISA with a competition step and the FXa deinhibition assay (FXa DIA). In the ELISA, averages were calculated and overall performance of variants was evaluated by comparing the variant to wt ratio from 1-3 independent experiments. […] Variants with average fluorescence counts below the negative control (non-expressing cells) plus 3×SD were considered as non-binding and marked with “−−”. […] Variants not analyzed are marked with “nd” (not determined). […]
Molecule,EC50 [3] [µM],Kd [4] [µM],also measured
"O=C(NC[C@H]1CN(c2ccc(N3CCOCC3=O)cc2)C(=O)O1)c1ccc(Cl)s1 [Rivaroxaban, 5-Chloro-N-({(5S)-2-oxo-3-[4-(3-oxo-4-morpholinyl)phenyl]-1,3-oxazolidin-5-yl}-methyl)-2-thiophenecarboxamide, reference compound]",–,–,PT prolongation by rivaroxaban (x control) ([1]; rivaroxaban 0.4 μM): 1.9 x control; PT prolongation by rivaroxaban (x control) ([1]; rivaroxaban 0.8 μM): 2.6 x control; PT prolongation by rivaroxaban (x control) ([2]; rivaroxaban 0.17 μM): 1.8 x control; PT prolongation by rivaroxaban (x control) ([2]; rivaroxaban 0.33 μM): 2.2 x control
"M16-A03: antibody, Vh SEQ ID NO: 211, Vl SEQ ID NO: 212 (antibody, listed as Homo Sapiens, V domains shown) VH: EVQLLESGGGLVQPGGSLRLSCAASGFTFSSYAMSWVRQAPGKGLEWVSGISGSGGSTFYADSVKGRFTISRDNSENTLYLQMNSLRAEDTAVYYCARQTSSGLAGYSYGLDPWGQGTLVTVTS VL: QSVLTQPPSASGTPGQRVTISCTGSSSNIGAGYDVHWYQQLPGTAPKLLIYSNNQRPSGVPDRFSGSKSGTSASLAISGLRSEDEADYYCAGWDDSLSGWVFGGGTKLTVL",< 2,< 0.5,–
"HC_N31S (antibody, V domains shown) VH: EVQLLESGGGLVQPGGSLRLSCAASGFTFSSAWMSWVRQAPGKGLEWVSYISSSGSTIYYADSVKGRFTISRDNSKNTLYLQMNSLRAEDTAVYYCAREGLWAFDYWGQGTLVTVTS VL: QSVLTQPPSASGTPGQRVTISCTGSSSNIGAGYVVHWYQQLPGTAPKLLIYDNNKRPSGVPDRFSGSKSGTSASLAISGLRSEDEADYYCAAWDDRLNGPVFGGGTKLTVLGQ",–,–,ELISA [5]: +/−

# Continued, in another order:
EC50 [3] [µM],Kd [4] [µM],Molecule,also measured
< 1,< 0.5,"M18-A10: antibody, Vh SEQ ID NO: 215, Vl SEQ ID NO: 216 (antibody, listed as Homo Sapiens, V domains shown) VH: EVQLLESGGGLVQPGGSLRLSCAASGFTFSSYGMSWVRQAPGKGLEWVSGISGSGGSTYYADSVKGRFTISRDNSKNTLYLQMNSLRAEDTAVYYCARDGGYDELDYWGQGTLVTVTS VL: QSVLTQPPSASGTPGQRVTISCTGSSSNIGAGYVVHWYQQLPGTAPKLLIYDNNKRPSGVPDRFSGSKSGTSASLAISGLRSEDEADYYCAAWDDSLSAWVFGGGTKLTVL",–
< 1,< 0.5,"M16-D05: antibody, Vh SEQ ID NO: 213, Vl SEQ ID NO: 214 (antibody, listed as Homo Sapiens, V domains shown) VH: EVQLLESGGGLVQPGGSLRLSCAASGFTFSAYWMAWVRQAPGKGLEWVSSISSSSSYIYYADSVKGRFTISRDNSKNTLYLQMNSLRAEDTAVYYCARVTEGGLDYWGQGTLVTVTS VL: QSVLTQPPSASGTPGQRVTISCSGSSSNIGNNAVNWYQQLPGTAPKLLIYRNNQRPSGVPDRFSGSKSGTSASLAISGLRSEDEADYYCQSYDSSLSGWVFGGGTKLTVL",–
< 1,< 0.5,"M25-E05: antibody, Vh SEQ ID NO: 219, Vl SEQ ID NO: 220 (antibody, listed as Homo Sapiens, V domains shown) VH: EVQLLESGGGLVQPGGSLRLSCAASGFTFSNAWMSWVRQAPGKGLEWVSSIHWNGGYIGYAESVKGRFTISRDNSKNTLYLQMNSLRAEDTAVYYCARVTLDAVDYWGQGTLVTVTS VL: QSVLTQPPSASGTPGQRVTISCSGSSSNIGNNAVNWYQQLPGTAPKLLIYRNNQRPSGVPDRFSGSKSGTSASLAISGLRSEDEADYYCQSYDNRLTAWVFGGGTKLTVL",–
